Reference: US20240101668A1 (WUGEN, published 2024)
Substitutions are numbered along the chain they refer to.

T1: huCLL1-K244-Avi-Tev-His (human, UniProt Q5QGZ9 65-265)
T1 construct: extracellular domain
T1 sequence (looked up): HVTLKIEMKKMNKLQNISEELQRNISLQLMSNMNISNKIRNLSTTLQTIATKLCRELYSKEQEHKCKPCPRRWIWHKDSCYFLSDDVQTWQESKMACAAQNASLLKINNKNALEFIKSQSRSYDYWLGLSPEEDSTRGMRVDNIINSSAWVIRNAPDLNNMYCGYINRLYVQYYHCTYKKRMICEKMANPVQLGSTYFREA

T2: huCLL1-Q244-Avi-Tev-His (human, UniProt Q5QGZ9 65-265)
T2 construct: extracellular domain; also called CLL-1 K244Q
T2 sequence (looked up): T1 sequence (looked up) with K180Q

B1: Polypeptide No. 163 (scFv, V domains shown)
VH: QVQLVQSGAEVKKPGASVKVSCKASGYTFTSYYMQWVRQAPGQGLEWMGWMNPNSGNTGYAQKFQGRVTMTRDTSTSTVYMELSSLRSEDTAVYYCARALYGDYLDIWGQGTTVTVSS
VL: DIQMTQSPSSLSASVGDRVTITCRASQPIATWLAWYQQKPGKAPKLLIYDTSSLQSGVPSRFSGSGSGTDFTLTISSLQPEDFATYYCQQSYSLPLGFGQGTKVEIKR
notes: scFv
B2: Polypeptide No. 164 (scFv, V domains shown)
VH: QVQLVQSGAEVKKPGASVKVSCKASGYTFTAHYIHWVRQAPGQGLEWMGIINPNGGRTTYAQKFQGRVTMTRDTSTSTVYMELSSLRSEDTAVYYCARDSDFWSGYYSDYYYGMDVWGQGTTVTVSS
VL: DIQMTQSPSSLSASVGDRVTITCQASQDISNFLNWYQQKPGKAPKLLIYATSTLQSGVPSRFSGSGSGTDFTLTISSLQPEDFATYYCQQSYTTEWTFGQGTKVEIKR
notes: scFv
B3: Polypeptide No. 165 (scFv, V domains shown)
VH: B1 VH with Y33D, M34I, Q35N, A99L, L100S, Y101S, D103Y, L105P, I107Y, T113L
VL: B1 VL with P28F, T31N, T51A, Q55E, L94T, G97T, Q100G
notes: scFv
B4: Polypeptide No. 166 (scFv, V domains shown)
VH: QVQLVQSGAEVKKPGASVKVSCKASGYTFESYDMNWVRQAPGQGLEWMGWIDPHSGDTNFAQKFQGRVTMTRDTSTSTVYMELSSLRSEDTAVYYCARADYGGNADYWGQGTLVTVSS
VL: B1 VL with P28G, A30S, T31N, T51A, S53N, Q55E, S56T, L94T, L96Y, G97T
notes: scFv
B5: Polypeptide No. 167 (scFv, V domains shown)
VH: QVQLVQSGAEVKKPGASVKVSCKASGYTFTSYYMHWVRQAPGQGLEWMGWINPNSGGTNYAQKFQGRVTMTRDTSTSTVYMELSSLRSEDTAVYYCARGTTGDDFDYWGQGTLVTVSS
VL: B1 VL with P28D, A30S, D50A, T51A, L94I, L96P, G97T, Q100P, E105D
notes: scFv
B6: Polypeptide No. 168 (scFv, V domains shown)
VH: B5 VH with S31N, Y33G, M34I, H35S, G99V, T100R, T101S, G102D, D104F
VL: B1 VL with P28S, I29V, A30N, T31H, D50A, T51A, S53T, G97T, Q100G
notes: scFv
B7: Polypeptide No. 169 (scFv, V domains shown)
VH: QVQLVQSGAEVKKPGASVKVSCKASGYTFTNDYIHWVRQAPGQGLEWMGWMSPNSGKTGFAQKFQGRVTMTRDTSTSTVYMELSSLRSEDTAVYYCAKDNSSGWYFDLWGRGTLVTVSS
VL: DIQMTQSPSSLSASVGDRVTITCRVSQGISSYLAWYQQKPGKAPKLLIYDASNLETGVPSRFSGSGSGTDFTLTISSLQPEDFATYYCQQYDTLPITFGQGTRLEIKR
notes: scFv
B8: Polypeptide No. 170 (scFv, V domains shown)
VH: QVQLVQSGAEVKKPGASVKVSCKASGGSFSNHGVSWVRQAPGQGLEWMGWMNPNSGDTGYAQKFQGRVTMTRDTSTSTVYMELSSLRSEDTAVYYCARPRKDDAFAIWGQGTLVTVSS
VL: B1 VL with P28S, A30S, T31S, D50E, T51A, S53T, L94T, G97T
notes: scFv
B9: Polypeptide No. 171 (scFv, V domains shown)
VH: QVQLVQSGAEVKKPGASVKVSCKASGYTFTDYYIHWVRQAPGQGLEWMGMVDPNTGNINYAQTFQGRVTMTRDTSTSTVYMELSSLRSEDTAVYYCTSGSTNDAFDIWGQGTMVTVSS
VL: B1 VL with P28S, A30G, T31P, D50E, T51A, S53N, Q55A, L94T, G97T, Q100G
notes: scFv
B10: Polypeptide No. 172 (scFv, V domains shown)
VH: B5 VH with T30S, S31D, M34V, I51M, G57N, N59G, T100L, D104Q
VL: not shown
notes: scFv
B11: Polypeptide No. 173 (scFv, V domains shown)
VH: QVQLVQSGAEVKKPGASVKVSCKASGYTFNGYNMHWVRQAPGQGLEWMGWINPNSGDTNYAQKFQGRVTMTRDTSTSTVYMELSSLRSEDTAVYYCASLDYGDYAVYWGQGTLVTVSS
VL: B1 VL with P28S, A30S, T51A, Q55R, L94T, L96I, G97T
notes: scFv
B12: Polypeptide No. 174 (scFv, V domains shown)
VH: EVQLLESGGGLVQPGGSLRLSCAASGFIFRDHWMHWVRQAPGKGLEWVSSIDFSTGYIYYADSVKGRFTISRDNSKNTLYLQMNSLRAEDTAVYYCARDPWGDGDFDYWGRGTLVTVSS
VL: DIQMTQSPSSLSASVGDRVTITCRASQSISSWLAWYQQKPGKAPKLLIYAASSLQSGVPSRFSGSGSGTDFTLTISSLQPEDFATYYCQQTYTTPYTFGQGTRLEIKR
notes: scFv
B13: Polypeptide No. 175 (scFv, V domains shown)
VH: QVQLVQSGAEVKKPGASVKVSCKASGYTFTSYDIHWVRQAPGQGLEWMGWINPNSGNTGYAQKFQGRVTMTRDTSTSTVYMELSSLRSEDTAVYYCAGGPDVDAAMVLDYWGQGTLVTVSS
VL: DIQMTQSPSSLSASVGDRVTITCQASQDISNYLNWYQQKPGKAPKLLIYDASNLETGVPSRFSGSGSGTDFTLTISSLQPEDFATYYCQQADGFPPTFGGGTKVEIKR
notes: scFv
B14: Polypeptide No. 176 (scFv, V domains shown)
VH: QVQLVQSGAEVKKPGASVKVSCKASGGSFTSYYIHWVRQAPGQGLEWVGWMNPNSGNTGYAQKFQGRVTMTRDTSTSTVYMELSSLRSEDTAVYYCARGATDDAFDIWGQGTMVTVSS
VL: DIQMTQSPSSLSASVGDRVTITCRASQNIDTWLAWYQQKPGKAPKLLIYDGSNLEAGVPSRFSGSGSGTDFTLTISSLQPEDFATYYCQQSYNTPITFGQGTRLEIKR
notes: scFv
B15: Polypeptide No. 178 (scFv, V domains shown)
VH: EVQLLESGGGLVQPGGSLRLSCAASGFTFSSSDMSWVRQAPGKGLEWVSSITGSGDGTYYADSVKGRFTISRDNSKNTLYLQMNSLRAEDTAVYYCIRDWEGIYQWGQGTLVTVSS
VL: B7 VL with A34N, Y91G, D92Y, T93S, L94T, I96W, R103K
notes: scFv
B16: Polypeptide No. 179 (scFv, V domains shown)
VH: QVQLVQSGAEVKKPGASVKVSCKASGGTFSSYAISWVRQAPGQGLEWMGTINPSGGSTNYAQKFQGRVTMTRDTSTSTVYMELSSLRSEDTAVYYCAIGGYDSPYMDVWGKGTTVTVSS
VL: B13 VL with A91G, D92Y, G93S, F94P, P96W
notes: scFv

Assays:
huCLL1-K244-Avi-Tev-His = target: T1, huCLL1-K244-Avi-Tev-His; assay: BLI
huCLL1-Q244-Avi-Tev-His = target: T2, huCLL1-Q244-Avi-Tev-His; assay: BLI

| Binder | binding result (huCLL1-K244-Avi-Tev-His) | binding result (huCLL1-Q244-Avi-Tev-His) |
| --- | --- | --- |
| B1 | binds | binds |
| B2 | binds | binds |
| B3 | binds | binds |
| B4 | binds | binds |
| B5 | binds | binds |
| B6 | binds | binds |
| B7 | binds | binds |
| B8 | binds | binds |
| B9 | binds | binds |
| B10 | binds | binds |
| B11 | binds | binds |
| B12 | binds | binds |
| B13 | binds | binds |
| B14 | binds | binds |
| B15 | binds | binds |
| B16 | binds | binds |
